{"source": "IntAct's records for PubMed 18794898", "parents": {"B1": {"name": "Indian hedgehog protein (Mus musculus), P97812 (parent)", "chain": "MSPAWLRPRLRFCLFLLLLLLVPAARGCGPGRVVGSRRRPPRKLVPLAYKQFSPNVPEKTLGASGRYEGKIARSSERFKELTPNYNPDIIFKDEENTGADRLMTQRCKDRLNSLAISVMNQWPGVKLRVTEGWDEDGHHSEESLHYEGRAVDITTSDRDRNKYGLLARLAVEAGFDWVYYESKAHVHCSVKSEHSAAAKTGGCFPAGAQVRLENGERVALSAVKPGDRVLAMGEDGTPTFSDVLIFLDREPNRLRAFQVIETQDPPRRLALTPAHLLFIADNHTEPAAHFRATFASHVQPGQYVLVSGVPGLQPARVAAVSTHVALGSYAPLTRHGTLVVEDVVASCFAAVADHHLAQLAFWPLRLFPSLAWGSWTPSEGVHWYPQMLYRLGRLLLEESTFHPLGMSGAGS", "partner": "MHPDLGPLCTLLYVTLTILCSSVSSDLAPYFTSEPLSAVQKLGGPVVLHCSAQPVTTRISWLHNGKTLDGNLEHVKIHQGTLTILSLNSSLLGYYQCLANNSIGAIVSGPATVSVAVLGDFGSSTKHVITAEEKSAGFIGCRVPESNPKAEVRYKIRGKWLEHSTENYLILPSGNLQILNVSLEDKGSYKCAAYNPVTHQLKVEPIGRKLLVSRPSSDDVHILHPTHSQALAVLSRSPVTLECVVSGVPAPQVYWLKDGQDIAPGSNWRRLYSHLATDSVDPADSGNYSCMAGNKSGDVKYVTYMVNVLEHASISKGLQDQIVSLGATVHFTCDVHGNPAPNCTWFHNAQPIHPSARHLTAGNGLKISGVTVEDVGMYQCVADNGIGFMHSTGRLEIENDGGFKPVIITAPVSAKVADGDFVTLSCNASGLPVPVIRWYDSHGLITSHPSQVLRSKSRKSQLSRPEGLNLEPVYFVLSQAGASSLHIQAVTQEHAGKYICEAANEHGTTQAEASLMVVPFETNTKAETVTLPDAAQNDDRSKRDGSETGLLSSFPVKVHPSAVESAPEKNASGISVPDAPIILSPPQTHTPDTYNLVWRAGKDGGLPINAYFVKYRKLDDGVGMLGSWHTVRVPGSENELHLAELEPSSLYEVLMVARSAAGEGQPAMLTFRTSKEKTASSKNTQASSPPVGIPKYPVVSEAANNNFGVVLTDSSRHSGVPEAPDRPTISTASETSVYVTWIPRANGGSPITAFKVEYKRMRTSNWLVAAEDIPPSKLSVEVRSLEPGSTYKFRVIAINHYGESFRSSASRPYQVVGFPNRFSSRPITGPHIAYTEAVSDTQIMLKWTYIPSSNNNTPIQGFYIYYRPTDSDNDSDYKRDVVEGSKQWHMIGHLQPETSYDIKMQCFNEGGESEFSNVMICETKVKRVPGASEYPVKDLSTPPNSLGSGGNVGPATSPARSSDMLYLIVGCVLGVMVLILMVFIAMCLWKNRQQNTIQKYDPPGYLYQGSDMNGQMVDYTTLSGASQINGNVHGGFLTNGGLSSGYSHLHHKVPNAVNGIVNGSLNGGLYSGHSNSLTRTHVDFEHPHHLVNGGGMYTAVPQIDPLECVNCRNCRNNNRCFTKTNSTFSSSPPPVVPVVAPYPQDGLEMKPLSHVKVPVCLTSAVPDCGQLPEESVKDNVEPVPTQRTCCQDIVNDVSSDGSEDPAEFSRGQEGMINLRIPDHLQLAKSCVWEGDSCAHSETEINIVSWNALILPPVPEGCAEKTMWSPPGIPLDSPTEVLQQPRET"}}, "data": [{"variants_of": "B1", "details": "with cdon_human CDON", "values": [{"variant": "E131K", "effect of a mutation on the interaction": "disrupting interaction"}]}]}
